# Experimental data as given in paper PMC11096372.
# Target: Cas8b;Cas7b;Cas5b;Cas6b;Cas11b (Synechocystis sp. PCC 6714;Synechocystis sp. PCC 6714;Synechocystis sp. PCC 6714;Synechocystis sp. PCC 6714;Synechocystis sp. PCC 6714) (UniProt A0A068N831+A0A068N458+A0A068N1Y0+A0A068N831)
# Assay: EMSA
# Details: crRNA-loaded Cascade; EMSA: 10 nM labeled DNA, Cascade 0-200 nM, 20 mM HEPES pH 7.5, 100 mM NaCl, 25 C, 1 h; 6% acrylamide gel, 0.5x TBE, cold room; Hill fit
row,Sequence,Kd
1,TAATACGACTCACTATAGGTCGCGGATCCACATTTATCACCGTGTCCCCAATCTGGATATTTTGTGTCTCGAGCACCACCGCTGAGCAATAACTAGC (double strand) [ACA-PAM 97 bp (synPAM-9)],56.2 nM
2,TAATACGACTCACTATAGGTCGCGGATCCACCTTTATCACCGTGTCCCCAATCTGGATATTTTGTGTCTCGAGCACCACCGCTGAGCAATAACTAGC (double strand) [ACC-PAM 97 bp (synPAM-11)],58.2 nM
3,TAATACGACTCACTATAGGTCGCGGATCCACGTTTATCACCGTGTCCCCAATCTGGATATTTTGTGTCTCGAGCACCACCGCTGAGCAATAACTAGC (double strand) [ACG-PAM 97 bp (synPAM-10)],20.6 nM
4,TAATACGACTCACTATAGGTCGCGGATCCACTTTTATCACCGTGTCCCCAATCTGGATATTTTGTGTCTCGAGCACCACCGCTGAGCAATAACTAGC (double strand) [ACT-PAM 97 bp (synPAM-12)],140 nM
5,TAATACGACTCACTATAGGTCGCGGATCCATATTTATCACCGTGTCCCCAATCTGGATATTTTGTGTCTCGAGCACCACCGCTGAGCAATAACTAGC (double strand) [ATA-PAM 97 bp (synPAM-13)],24 nM
6,TAATACGACTCACTATAGGTCGCGGATCCATCTTTATCACCGTGTCCCCAATCTGGATATTTTGTGTCTCGAGCACCACCGCTGAGCAATAACTAGC (double strand) [ATC-PAM 97 bp (synPAM-15)],47.7 nM
7,TAATACGACTCACTATAGGTCGCGGATCCATGTTTATCACCGTGTCCCCAATCTGGATATTTTGTGTCTCGAGCACCACCGCTGAGCAATAACTAGC (double strand) [ATG-PAM 97 bp (synPAM-14)],18 nM
8,TAATACGACTCACTATAGGTCGCGGATCCATTTTTATCACCGTGTCCCCAATCTGGATATTTTGTGTCTCGAGCACCACCGCTGAGCAATAACTAGC (double strand) [ATT-PAM 97 bp (synPAM-16)],59.7 nM
